Measured values: article PMC6535971 (ACS Central Science, 2019)
Where a chain is given by its changes, count along the chain named. Where no end group is shown, it is not given here.

Key:
[1] = tested on: MkYcaO; assay: Cyclodehydration reaction, MALDI-TOF-MS; type: biochemical, Methanopyrus kandleri; conditions: pH 7.0 with additional phosphate
[2] = molecular target: T1, MjYcaO (Methanocaldococcus jannaschii, UniProt Q58494); assay: Cyclodehydration reaction, MALDI-TOF-MS; type: biochemical; conditions: wild-type MjYcaO and ATP at pH 7.5, no added anion
T1 sequence (Q58494 1-385): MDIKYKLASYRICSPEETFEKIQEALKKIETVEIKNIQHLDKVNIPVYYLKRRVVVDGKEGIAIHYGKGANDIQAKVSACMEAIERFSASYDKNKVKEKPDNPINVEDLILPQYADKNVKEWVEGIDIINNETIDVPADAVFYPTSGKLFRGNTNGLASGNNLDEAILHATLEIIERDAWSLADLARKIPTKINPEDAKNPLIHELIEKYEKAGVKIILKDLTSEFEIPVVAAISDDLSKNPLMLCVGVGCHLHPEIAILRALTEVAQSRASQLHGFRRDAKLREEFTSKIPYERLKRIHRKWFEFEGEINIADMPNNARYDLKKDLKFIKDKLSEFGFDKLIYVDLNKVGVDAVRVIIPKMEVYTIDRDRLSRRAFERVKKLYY

[3] = molecular target: T1, MjYcaO; assay: Competition FP binding assay; conditions: competitive FP, MBP-tagged 11-mer variant against FITC-labeled 11-mer peptide
[4] = molecular target: Methanocaldococcus jannaschii YcaO (MjYcaO), wild type (Methanocaldococcus jannaschii) (UniProt Q58494); assay: fluorescence polarisation
[5] = molecular target: T2, Methanocaldococcus jannaschii YcaO (MjYcaO), wild type (Methanocaldococcus jannaschii, UniProt Q58494 1-385); assay: crystal structure
T2 sequence: T1 sequence (Q58494 1-385)

[6] = molecular target: T2, Methanocaldococcus jannaschii YcaO …; assay: fluorescence polarisation
[7] = molecular target: T3, MjYcaO Y66A variant (Methanocaldococcus jannaschii, UniProt Q58494 1-385, Y66A); assay: fluorescence polarisation
T3 sequence: T1 sequence (Q58494 1-385) with Y66A

[8] = molecular target: T4, MjYcaO W180F variant (Methanocaldococcus jannaschii, UniProt Q58494 1-385, W180F); assay: fluorescence polarisation
T4 sequence: T1 sequence (Q58494 1-385) with W180F

[9] = molecular target: T5, MjYcaO Y66F variant (Methanocaldococcus jannaschii, UniProt Q58494 1-385, Y66F); assay: fluorescence polarisation
T5 sequence: T1 sequence (Q58494 1-385) with Y66F

[10] = molecular target: T6, MjYcaO W180V variant (Methanocaldococcus jannaschii, UniProt Q58494 1-385, W180V); assay: fluorescence polarisation
T6 sequence: T1 sequence (Q58494 1-385) with W180V

[11] = molecular target: T7, MjYcaO Y66G variant (Methanocaldococcus jannaschii, UniProt Q58494 1-385, Y66G); assay: fluorescence polarisation
T7 sequence: T1 sequence (Q58494 1-385) with Y66G

[12] = molecular target: T8, MjYcaO Y66L variant (Methanocaldococcus jannaschii, UniProt Q58494 1-385, Y66L); assay: fluorescence polarisation
T8 sequence: T1 sequence (Q58494 1-385) with Y66L

[13] = molecular target: T9, MjYcaO W303A variant (Methanocaldococcus jannaschii, UniProt Q58494 1-385, W303A); assay: fluorescence polarisation
T9 sequence: T1 sequence (Q58494 1-385) with W303A

[14] = molecular target: T2, Methanocaldococcus jannaschii YcaO …; assay: fluorescence polarisation; remark: listed apart in the source

With RLGFYGCDLQD [Y(+1)C 11-mer] the cyclodehydration [1] was “enzyme-dependent conversion to the dehydrated species”, the “cyclodehydration (change of peptide mass)” value [2] was “almost no change” and the “increase in Ki relative to wild-type” value [3] was 2 fold.

“MBP-tagged MjMcrA peptide, Leu(-4) to Ala” was tested, and the fold increase in Ki against the wild-type peptide [4] was > 6 fold.

In the case of “MBP-tagged MjMcrA peptide, D(+2)A variant”, the fold increase in Ki against the wild-type peptide [4] is reported as 4 fold.

For “MBP-tagged MjMcrA peptide, Gly(-3) to Ala”, the fold increase in Ki against the wild-type peptide [4] was > 6 fold.

For “MBP-tagged MjMcrA peptide, F(-2)A variant”, the fold increase in Ki against the wild-type peptide [4] was 3 fold.

Work on MjMcrA Y(+1)S 11-mer peptide yielded a fold increase in Ki against the wild-type peptide [4] of 2 fold.

Work on MjMcrA Y(+1)C 11-mer peptide … yielded a fold increase in Ki against the wild-type peptide [4] of 2 fold.

RLGFYGYDLQD [MjMcrA 11-mer peptide RLGFYGYDLQD]: binds [5].

RLGFYGYDLQD (not fully specified (N-terminus); also: FITC label (site not given here)) [FITC-labeled 11-mer MjMcrA peptide RLGFYGYDLQD (without the double Gly linker)]: binds [6].

GGRLGFYGYDLQD (not fully specified (N-terminus); also: FITC label (site not given here)) [FITC-labeled 13-mer MjMcrA peptide GG-RLGFYGYDLQD]: binds [7]; binds [8]; binds [9]. GGRLGFYGYDLQD (not fully specified (N-terminus); also: FITC label (site not given here)) [FITC-labeled 13-mer MjMcrA peptide GG-RLGFYGYDLQD]: binds [10]; binds [11]; binds [12]. GGRLGFYGYDLQD (not fully specified (N-terminus); also: FITC label (site not given here)) [FITC-labeled 13-mer MjMcrA peptide GG-RLGFYGYDLQD]: binds [13]; binds [14].
